This assay has as its target SARS-CoV-2 S glycoprotein, full length, expressed at the surface of ExpiCHO cells (SARS-CoV-2 (isolate BetaCoV/Wuhan-Hu-1/2019)) (UniProt P0DTC2).

Take S309 Fab fragment: the neutralization of SARS-CoV-2-MLV pseudovirus (transduction), IC50 stood at 3.8 nM and the neutralization of SARS-CoV-2-MLV pseudovirus, plateau of neutralization stood at 80%.

“S309 full-length IgG1 (rIgG-LS) (antibody)” had a neutralization of SARS-CoV-2-MLV pseudovirus (transduction), IC50 of 3.5 nM and a neutralization of SARS-CoV-2-MLV pseudovirus, maximal neutralization of 100%.
